The values that follow come from PMC8402544.

This experiment deals with Aedes aegypti membrane-bound alkaline phosphatase (Aa-mALP), 54 kDa His(6)-tagged (Aedes aegypti). The experiment in a line: ELISA; sandwich ELISA; Aa-mALP (2.5 µg) coated on 96-well plates in 50 mM carbonate buffer pH 9.0; ligands at 100, 200, 300 and 400 nM, 37 °C, 2 h; detected with rabbit anti-Cry4Ba antibodies and HRP anti-rabbit IgG; apparent Kd; relative binding with Wt-R203Q set at 100%. In general terms: ELISA stands for enzyme-linked immunosorbent assay.

“21 kDa isolated Cry4Ba-DIII fragment (domain or fragment)”: the Kd was found to be 110 nM. “65 kDa Cry4Ba-R203Q full-length (trypsin-activated) toxin (natural protein)”: the Kd turned out to be 80 nM.
